# Experiment: yeast display, Sf9 membrane polyspecificity reagent, FACS + sequencing; frameworks hold sequencing errors
# Outline: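 Nanobodies from a synthetic yeast display library (Saccharomyces cerevisiae BJ5465), induced 36–48 hours with galactose, were stained 1 hour at 4 °C with 10% biotinylated, detergent-solubilized Sf9 membrane reagent, enriched on streptavidin microbeads, then FACS-sorted. Anti-HA (expression) and streptavidin (reagent binding) fluorescence set low and high (top ~1%) gates. Polyreactivity labels come from the gate of origin. Genes were colony-PCR amplified, MiSeq 2 × 250 sequenced and filtered by CDR length.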
row,Sequence,polyreactivity (PSR sort gate)
1,QVQLVESGGGLVQAGGSLRLSCAASGRIFQNNAMGWYRQAPGKERELVAAINIIDGVTYYADSVKGRFTISRDNAKNTVYLQMNSLKPEDTAVYYCNAVRRAHHRKYNYWGQGSQVTVSS,low polyreactivity
2,QVQLVESGGGLVQAGGSLRLSCAASGRIFQPNAMGWYRQAPGKERELVAAISSSGGRTYYADSVKGRFTISRDNAKNTVYLQMNSLKPEDSAVYYCNAGGYRYRSYDYWGQGTQVTVSS,high polyreactivity
3,QVQLVESGGGLVQAGGSLRLSCAASGRIFQPNAMGWYRQAPGKERELVAAISSSGGRTYYADSVKGRFTISRDNAKNTVYLQMYSLKPEDSAVYYCNAGGYRYRSYDYWGQGTQVTVSS,high polyreactivity
4,QVQLVESGGGLVQAGGSLRLSCAASGRIFQPNVMGWYRQAPGKERELVAAIRSGSSTYYADSVKGRFTISRDNAKNTVYLQMNSLKPEDTAVYYCATRRAGRGYDYWGQGTQVTVSS,high polyreactivity
5,QVQLVESGGGLVQAGGSLRLSCAASGRIFQRNAMGWYRQAPGKERELVAAITSTGVRTYYADSVKGRFTISRDNAKNTVYLQMNSLKPEDTAVYYCAVRGERRYIYAYWGQGTQVTVSS,high polyreactivity
6,QVQLVESGGGLVQAGGSLRLSCAASGRIFQRNAMGWYRQAPGKVWELVAAITSTGVRTYYADSVKGRFTISRDNAKNTVYLQMNSLKPEDSAVYYCNAVGRRVRTWHDYDYWGQGTQVTVSS,high polyreactivity
7,QVQLVESGGGLVQAGGSLRLSCAASGRIFQRYAMGWYRQAPGKERELVAAISKNGGRTYYADSVKGRFTISRDNAKNTVYLQMNSLKPEDTAVYYCNKGTAGYEYAAFDYWGQGTQVTVSS,low polyreactivity
8,QVQLVESGGGLVQAGGSLRLSCAASGRIFQRYTMGWYRQAPGKEREFVAAITYSGGSTHYADSVKGRFTISRDNAKNTVYLQMNSLKPEDTAVYYCNADRYYGRGYGYWGQGTQVTVSS,low polyreactivity
9,QVQLVESGGGLVQAGGSLRLSCAASGRIFQVNAMGWYRQAPGKERELVAAITYSGGTTYYADSVKGRFTISRDNAKNTVYLQMNSLKPEDTAVYYCNAEYRWPYWGQWYFKGYDYWGQGTQVTVSS,low polyreactivity
10,QVQLVESGGGLVQAGGSLRLSCAASGRIFQWYTMGWYRQAPGKERELVATITDGGSTYYADSVKGRFTISRDNAKNTVYLQMNSLKPEDTAVYYCAARKIGSRRLLYPYYIFGYWGQGTQVTVSS,high polyreactivity
11,QVQLVESGGGLVQAGGSLRLSCAASGRIFQYYAMGWYRQAPGKEREFVAAISDSGSNTYYADSVKGRFTISCDKAKNTVYLQMNSLKPEDTAVSYCAALYATRALFYFWGQGTQVTVSS,low polyreactivity
12,QVQLVESGGGLVQAGGSLRLSCAASGRIFQYYAMGWYRQAPGKERELVAAISSSGGSTYYADSVKGRFTISRDNAKNTVYLQMNSLKPEDTAVYYCNADRNARQNRRDYWGQGTQVTVSS,high polyreactivity
13,QVQLVESGGGLVQAGGSLRLSCAASGRIFQYYAMGWYRQEPGKERELVAAISGSGGRTYYADSVKGRFTISRDNAKNTVYLQMNSLKPEDTAVYYCNAVYRYYPFDYWGQGTQVTVSS,high polyreactivity
14,QVQLVESGGGLVQAGGSLRLSCAASGRIFRAYAMGWYRQAPGKERELVADIRGGGSTNYADSVKGRFTISRDNAKNTVYLQMNSLKPEDTAVYYCNAAAYRGMRQGPRYYYWGQGTQVTVSS,high polyreactivity
15,QVQLVESGGGLVQAGGSLRLSCAASGRIFRFYAMGWYRQAPGKERELVAAISSRGGSTYYADSVKGRFTISRDNAKNTVYLQMNSLKPEDTAVYYCNAYGSTSQMDYWGQGTQVTVSS,high polyreactivity
16,QVQLVESGGGLVQAGGSLRLSCAASGRIFRFYAMGWYRQAPGKERELVAVISTGGRTYYADSVKGRFTISRDNAKNTVYLQMNSLKPEDTAVYYCAAEYTTIGRYDGWHYNYWGQGTQVTVSS,high polyreactivity
17,QVQLVESGGGLVQAGGSLRLSCAASGRIFRFYTMAWYRQAPGKERELVAAITQRGGRTYYADSVKGRFTISRDNAKNTVYLLMNSLKPEDTAVFYCAATTTVAEYDYWGQGTQVTVSS,high polyreactivity
18,QVQLVESGGGLVQAGGSLRLSCAASGRIFRGNAMGWYRQAPGKERELVAAISNSGGRTYYADSVKGRFTISRDNAKNTVYVQMTSLKPEDTAVYYCNAVTYSRRYAYYYWGQGTQVTVSS,high polyreactivity
19,QVQLVESGGGLVQAGGSLRLSCAASGRIFRGNTMGWYRQAPGKERELVAAITRGGSTSYADSVKGRFTISRDNAKNTVYLQMNSLKPEDTAVYYCATRTHGEGTRRDSWGQGTQVTVSS,low polyreactivity
20,QVQLVESGGGLVQAGGSLRLSCAASGRIFRGSAMGWYRQAPGKERELVATINASGGTTYYADSVKGRFTISRDNAKNTVYLQMNSLKPEDTAVYYCNARFRRFFSGYGYWGQGTQVTVSS,high polyreactivity
21,QVQLVESGGGLVQAGGSLRLSCAASGRIFRGYAMGSYRQETGKETELVAAISRSGGSTYYADSVKGRFTISRDNAKNTVYLQMNILKPEDTAVYYCNTKYVRYYRRYDSWGQGTQVTVSS,high polyreactivity
22,QVQLVESGGGLVQAGGSLRLSCAASGRIFRGYAMGWYRQAPGKERELVAAINSGGDTYYADSVKGRFTISRDNAKNTVYLQMNSLKPEDTAVYYCAAAWWDYGNGKYDYWGQGTQVTVSS,low polyreactivity
23,QVQLVESGGGLVQAGGSLRLSCAASGRIFRGYAMGWYRQAPGKERELVAAISSGVSTNYADSVKGRFTISRDNAKNTVYLQKNSLKPVDTAVYYCAAYFYSPYGTAGKYRRRYNYWGQGTQVTVSS,high polyreactivity
24,QVQLVESGGGLVQAGGSLRLSCAASGRIFRGYAMGWYRQAPGKERELVATISAIGGSTYADSVKGRFTISRDNAKNTVYLQRNSLKPEDTAVYYCNVRKVYRYQYRFEYWGQGTQVTVSS,high polyreactivity
25,QVQLVESGGGLVQAGGSLRLSCAASGRIFRGYAMGWYRQAPWKERELVAAISRSGGSTYYADSVKGRFTISRDNAKNTVYLQMNSLKPVDTAVYYCAAYTYSAGGYWGQGSQVTVSS,high polyreactivity
26,QVQLVESGGGLVQAGGSLRLSCAASGRIFRGYAMGWYRQPPGTERELVAAITKRGGSTYYADSVKGRFTISRDNEKNTVSLQMNSLKPEDTAVYYCAAYLPGWELREYGYWGQGTQVTVSS,high polyreactivity
27,QVQLVESGGGLVQAGGSLRLSCAASGRIFRGYARGWYRQAPGKEREFVAAITKNGGSTYYADSVKGRFTISRDNAKNTVYLQMNSLKPEDTAVYYCAVRAWDPYTGKSDYWGQGTQVTVSS,low polyreactivity
28,QVQLVESGGGLVQAGGSLRLSCAASGRIFRGYTMGWYRQAPGKERELVAAIRSGSRTNYADSVKGRFTISRDNAKNTVYLQMNSLKPEDTAVYYCAADSGYGRPYYYWGQGTQVTVSS,high polyreactivity
29,QVQLVESGGGLVQAGGSLRLSCAASGRIFRHYAMGWYRQAPGKVRELVAAIRWSGGSTYYADSVKGRFTISRDNAKNTVYLQMNSLKPADTAVYYCATRDAVGHRPSGPYQLYDYWGQGTQVTVSS,low polyreactivity
30,QVQLVESGGGLVQAGGSLRLSCAASGRIFRINAMGWYRQAPGKERELVASITSRAGSTYYADSVKGRFTISRDNAKNTVYLQMNSLKPEDTAVYYCAARSVYTYYRLDYWGQGTQVTVSS,high polyreactivity

# From the nanobody polyreactivity screen of Harvey et al. (2022)
